By IC50 is commonly meant the midpoint of a concentration-inhibition curve.

The assay concerns the target T1, HLA-DR2b molecules purified from L cells co-transfected with HLA-DRA and HLA-DRB1*1501 (human).
T1 construct: also called purified DR2b molecules
Description: competitive ELISA (DELFIA) on purified HLA-DR2b, displacement of biotinylated CLIP 97-120. The text has this:
DR2b molecules were purified from L cells that had been co-transfected with HLA-DRA and HLA-DRB1*1501, by affinity chromatography using the HLA-DR-specific L243 antibody, as described in Weissert et al. (2001), MHC class II-regulated central nervous system autoaggression and T cell responses in peripheral lymphoid tissues are dissociated in myelin oligodendrocyte glycoprotein-induced experimental autoimmune encephalomyelitits, J. Immunol. […] The above publication is incorporated into the present application by reference. The binding assays were performed with a competitive ELISA based on a dissociation-enhanced lanthanide fluoroimmunoassay (Wallac, Turku, Finland). For the competitive ELISA, a 50 nM solution of DR2b molecules was incubated for 48 hours at 37° C. with 50 nM biotinylated CLIP 97-120 in the presence of 250 nM acetylated nonapeptide amide sublibrary or with various concentrations of competitor peptides ranging from 1 nM to 100 μM.
The affinity of each of these peptides for the HLA-DR2b molecule was measured using the ELISA.
(In an ELISA, binding on a coated surface is turned into a signal by an enzyme label.)

The molecule Ac-MIDWYSSWP-NH2 (acetylated nonapeptide amide) [HuPb34] showed an IC50 of 1 nM.

The molecule Ac-WPLPLLEER-NH2 (acetylated nonapeptide amide) [HuPb10] gave a half-inhibitory concentration (IC50) of 33900 nM. The figure for Ac-FILIYSNLF-NH2 (acetylated nonapeptide amide) [HuPb29] is 2 nM; for Ac-GPLPEHELL-NH2 (acetylated nonapeptide amide) [HuPb15] it is 46700 nM. Ac-GSLPRHLFR-NH2 (acetylated nonapeptide amide) [HuPb18] displayed an IC50 of 43800 nM. Next, Ac-PYEAQELHE-NH2 (acetylated nonapeptide amide) [HuPb14]: above 100000 nM.

B1: HuPb28 (peptide)
peptide: Ac-MLIYYSSYL-NH2
notes: acetylated nonapeptide amide; also called HuPb28 peptide
In turn, B1 had a half-maximal inhibitory concentration (IC50) below 1 nM.

In turn, Ac-KGESGFRDR-NH2 (acetylated nonapeptide amide) [HuPb17] came in with an IC50 above 100000 nM. Next, Ac-LLYWYSSWP-NH2 (acetylated nonapeptide amide) [HuPb27]: below 1 nM; Ac-MIYWYSSWL-NH2 (acetylated nonapeptide amide) [HuPb20]: 1 nM; Ac-MIYWYSSWD-NH2 (acetylated nonapeptide amide) [HuPb33]: 1 nM. Next, Ac-LILWYSSWL-NH2 (acetylated nonapeptide amide) [HuPb24]: 2 nM; Ac-MIYWYSSWI-NH2 (acetylated nonapeptide amide) [HuPb21]: 1 nM; Ac-MIYWYSNWL-NH2 (acetylated nonapeptide amide) [HuPb30]: below 1 nM.

Ac-MIYWYNSWL-NH2 (acetylated nonapeptide amide) [HuPb31] registered an IC50 below 1 nM.

The molecule Ac-LIYWYSSWL-NH2 (acetylated nonapeptide amide) [HuPb22] returned an IC50 of 2 nM. The figure for Ac-LILWYSSWP-NH2 (acetylated nonapeptide amide) [HuPb26] is 1 nM; for Ac-GPPERLEFR-NH2 (acetylated nonapeptide amide) [HuPb19] it is above 100000 nM; for Ac-DIYWYSSWP-NH2 (acetylated nonapeptide amide) [HuPb32] it is below 1 nM. Consider Ac-LILYYYYYL-NH2 (acetylated nonapeptide amide) [HuPb23], for which the IC50 was 154 nM. Next, Ac-WGLPEHLER-NH2 (acetylated nonapeptide amide) [HuPb11]: above 100000 nM.

For the origin of these results see US20110053840A1 (MERCK SERONO S A, published 2011).
